Results as given in patent US20240269310A1 (GENERAL HOSPITAL, published 2024).

Key:
[1] = target: T1, recombinant murine CDH1 (R&D Systems 8875-EC-050) (murine, UniProt P09803 157-709); assay: western blot of recombinant purified protein
T1 construct: Bought protein; also called mCDH1; recombinant murine E-cadherin protein
T1 sequence (looked up): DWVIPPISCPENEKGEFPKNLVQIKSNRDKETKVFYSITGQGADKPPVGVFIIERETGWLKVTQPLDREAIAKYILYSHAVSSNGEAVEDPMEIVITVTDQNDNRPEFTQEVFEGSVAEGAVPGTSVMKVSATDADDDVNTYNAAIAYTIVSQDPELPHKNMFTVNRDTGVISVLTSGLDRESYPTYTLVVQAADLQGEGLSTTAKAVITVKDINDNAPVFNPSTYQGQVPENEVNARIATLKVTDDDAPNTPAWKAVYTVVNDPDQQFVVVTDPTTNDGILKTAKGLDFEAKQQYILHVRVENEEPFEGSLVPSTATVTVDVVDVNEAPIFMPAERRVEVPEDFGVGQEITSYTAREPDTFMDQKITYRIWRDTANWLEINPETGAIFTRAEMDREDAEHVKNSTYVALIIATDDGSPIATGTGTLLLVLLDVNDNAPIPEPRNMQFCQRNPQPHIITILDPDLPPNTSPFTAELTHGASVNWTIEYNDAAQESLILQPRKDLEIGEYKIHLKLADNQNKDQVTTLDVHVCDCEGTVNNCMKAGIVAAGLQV
Procedure: (§1) Western blot analysis was performed on whole cell extracts prepared with RIPA buffer. Proteins were separated on 4-15% polyacrylamide gradient-SDS gels (Bio-Rad), and transferred onto nitrocellulose membrane (Invitrogen). Immunoblots were visualized with Enhanced Chemiluminescence (Perkin-Elmer). Primary antibodies were used against E-cadherin (1:5000; BDBiosciences Clone 36), N-cadherin (1:500; EBiosciences Clone 8C11) and GAPDH (1:2000; Millipore ABS16). 23C6 was also used as a primary antibody for western blot analysis (1:250). Recombinant protein obtained as follows: human CDH1 (R&D Systems 8505-EC-050), murine CDH1 (R&D Systems 8875-EC-050), human CDH2 (R&D Systems 1388NC050) and human CDH11 (Elabscience #PKSH032136).

[2] = target: T2, recombinant human CDH1 (R&D Systems 8505-EC-050) (human, UniProt P12830 155-707); assay: western blot of recombinant purified protein
T2 construct: Bought protein; also called hCDH1; E-cadherin
T2 sequence (looked up): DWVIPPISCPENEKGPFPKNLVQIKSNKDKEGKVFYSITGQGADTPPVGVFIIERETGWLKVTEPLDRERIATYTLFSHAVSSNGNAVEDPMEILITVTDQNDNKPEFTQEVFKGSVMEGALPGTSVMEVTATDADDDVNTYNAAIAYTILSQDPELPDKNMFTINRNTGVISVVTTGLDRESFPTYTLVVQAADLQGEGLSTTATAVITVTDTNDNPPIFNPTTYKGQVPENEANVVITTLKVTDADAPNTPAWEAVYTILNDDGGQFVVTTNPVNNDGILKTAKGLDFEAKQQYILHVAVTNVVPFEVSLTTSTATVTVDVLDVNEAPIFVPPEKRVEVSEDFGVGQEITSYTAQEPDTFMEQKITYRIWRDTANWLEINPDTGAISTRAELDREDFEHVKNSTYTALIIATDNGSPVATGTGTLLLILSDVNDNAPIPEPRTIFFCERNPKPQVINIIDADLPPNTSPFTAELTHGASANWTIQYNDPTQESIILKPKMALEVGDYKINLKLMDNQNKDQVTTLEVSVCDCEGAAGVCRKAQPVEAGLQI
Procedure: as §1

[3] = target: T3, CDH11 as expressed by human breast cancer cells (MDA-MB-231 and breast cancer CTC lines Brx-142, Brx-330, … (human, UniProt P55287 54-796)); assay: western blot of whole cell extracts of MDA-MB-231 and CTC lines; shRNA knockdown as specificity control
T3 construct: whole, on cells; On cells in immunofluorescence and immunohistochemistry; In whole cell extracts (RIPA, SDS gel) in the western blots; also called Cadherin 11; OB-cadherin
T3 sequence (looked up): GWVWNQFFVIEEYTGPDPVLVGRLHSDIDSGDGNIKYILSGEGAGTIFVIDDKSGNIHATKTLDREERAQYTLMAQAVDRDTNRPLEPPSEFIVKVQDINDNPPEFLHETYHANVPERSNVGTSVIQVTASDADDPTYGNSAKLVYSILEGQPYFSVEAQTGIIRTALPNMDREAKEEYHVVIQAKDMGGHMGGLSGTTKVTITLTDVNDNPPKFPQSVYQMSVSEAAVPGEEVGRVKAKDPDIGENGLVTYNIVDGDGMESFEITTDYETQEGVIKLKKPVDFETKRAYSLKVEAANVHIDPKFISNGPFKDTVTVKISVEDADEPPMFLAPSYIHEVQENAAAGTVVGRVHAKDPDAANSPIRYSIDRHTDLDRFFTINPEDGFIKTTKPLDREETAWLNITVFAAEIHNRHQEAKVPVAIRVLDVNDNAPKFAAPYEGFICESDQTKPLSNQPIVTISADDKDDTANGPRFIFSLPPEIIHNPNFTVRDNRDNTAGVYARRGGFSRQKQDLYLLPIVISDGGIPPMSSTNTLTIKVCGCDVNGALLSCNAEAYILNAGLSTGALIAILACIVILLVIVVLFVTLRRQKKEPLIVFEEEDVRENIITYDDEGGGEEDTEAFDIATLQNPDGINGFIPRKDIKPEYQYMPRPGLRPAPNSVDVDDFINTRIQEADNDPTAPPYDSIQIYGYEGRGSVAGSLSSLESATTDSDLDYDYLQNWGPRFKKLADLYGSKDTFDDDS
Procedure: FIG. 1 is the RNA expression levels of cell adhesion molecules in the CTC lines Brx-82, Brx-142, Brx-394 AVG, Brx-189, Brx-390, Brx-121, Brx-292, Brx-319, Brx-250, Brx-140, or Brx-401 from breast cancer patients. The cell adhesion molecule CDH11 was expressed at the RNA level in multiple breast CTC cell lines (FIG. 1, black outline).
as §1

[4] = target: T4, CDH1 (E-cadherin) as expressed by PDAC9 cells (human, UniProt P12830 155-882); assay: flow cytometry of fixed PDAC9 cells after siRNA knockdown
T4 construct: whole, on cells; On fixed cells in flow cytometry; In whole cell lysates in the western blot; PDAC9 is described as patient-derived and is used among the human xenograft models
T4 sequence (looked up): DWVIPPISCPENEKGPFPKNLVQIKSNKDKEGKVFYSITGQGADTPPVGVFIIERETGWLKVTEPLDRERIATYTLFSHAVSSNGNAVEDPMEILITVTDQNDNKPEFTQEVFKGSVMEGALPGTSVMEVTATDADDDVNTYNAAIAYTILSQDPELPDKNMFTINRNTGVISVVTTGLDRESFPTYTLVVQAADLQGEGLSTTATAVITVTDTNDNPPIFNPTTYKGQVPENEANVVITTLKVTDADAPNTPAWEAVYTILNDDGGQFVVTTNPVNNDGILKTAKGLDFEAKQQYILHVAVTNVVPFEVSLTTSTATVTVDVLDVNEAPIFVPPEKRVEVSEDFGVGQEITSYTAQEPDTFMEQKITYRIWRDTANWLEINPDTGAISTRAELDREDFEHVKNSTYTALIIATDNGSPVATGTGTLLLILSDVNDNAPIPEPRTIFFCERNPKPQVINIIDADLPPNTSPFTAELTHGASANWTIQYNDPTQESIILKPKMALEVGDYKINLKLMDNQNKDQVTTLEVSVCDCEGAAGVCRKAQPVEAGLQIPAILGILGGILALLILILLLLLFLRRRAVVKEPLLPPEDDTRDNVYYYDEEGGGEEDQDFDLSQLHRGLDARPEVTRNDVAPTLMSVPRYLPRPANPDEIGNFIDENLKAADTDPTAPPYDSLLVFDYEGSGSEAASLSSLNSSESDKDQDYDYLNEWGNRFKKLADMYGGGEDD
Procedure: Cell lines were routinely checked for mycoplasma (MycoAlert, Lonza), and were obtained from ATCC. […] PDAC9 were grown as previously described (Porter et al., Proc Natl Acad Sci USA, (2019)). Viability assays were performed at 48 hours after treatment with varying concentration of the 23C6 antibody or PBS control. Viability was determined using Cell Titer Glo reagent (Promega). Proliferation assays were performed by treating MDA-MB-231 cells with a single dose of 23C6 antibody or PBS control and timepoints as indicated, where the relative cell number was determined with the Cell TiterGlo reagent. For migration assays, the MDA-MB-231 cells were harvested with trypsin, and the cells suspended in serum free media. […] The cell suspensions were treated with 23C6 or control, and after 48 hours, the number of cells migrating through the membrane was determined by crystal violet staining and microscopic imaging with automated counting of individual cells using Image J. For siRNA knockdown, ONTARGETplus siRNA smartpools (Horizon Discovery) were obtained and transfected using Lipofectamine RNAiMax reagent (Invitrogen) and the cells harvested for analysis after 5 days. For flow cytometry, in brief the cells were fixed with 4% PFA, blocked with 5% BSA in PBS and incubated with the 23C6 antibody at 1:500 followed by anti-mouse IgG-AlexaFlour 555 and then analyzed on BD Fortessa machine.

Measured: binding result

B1: anti-CDH11 monoclonal antibody clone 23C6 (antibody, V domains shown)
VH: EFQLQQSGPELVKPGASVKISCKASGYSFTDYNMNWVKQSNGKSLEWIGAINPNYGTTSYNQKFKGKATLTVDQSSSTAYMQLNSLTSEDSAVYYCTRLYYGSRYFDVWGTGTTVTVSS
VL: QIVVTQSPAIMSASLGERVTMTCTASSSVSSSYLHWYQQKPGSSPKLWIYSTSNLASGVPARFSGSGSGTSYSLTISSMEAEDVATYYCHQYHRSPPTFGGGAKLEIK
notes: also called 23C6 antibody; 23C6 anti-CDH11 antibody
binds: [1] | [2] | [3] | [4]
